The results in this text go back to PMC7915732 (2021).

Bridge positions count the residues as written; N and C are the ends. Ends that are not written are not given here.

Assay [1] deals with T1, cyclo[E-LYLAYPAH-K] (synthetic construct, lactam 1-10).
T1 chain: ELYLAYPAHK
Briefly: resin adsorption isotherm.

Assay [2] has as its target T2, cyclo[E-LYLAYPAH-K] (synthetic construct, lactam 1-10).
T2 chain: ELYLAYPAHK
Kind of assay: yeast surface titration.

B1: YAP WW domains 165-271 (protein)
chain: FEIPDDVPLPAGWEMAKTSSGQRYFLNHIDQTTTWQDPRKAMLSQMNVTAPTSPPVQQNMMNSASGPLPDGWEQAMTQDGEIYYINHKNKTTSWLDPRLDPRFAMNQ
For B1, the figures for the Kd in the assay with cyclo[E-LYLAYPAH-K] [1] and with cyclo[E-LYLAYPAH-K] [2] were 2640 nM and 680 nM, respectively.

By Kd is commonly meant the concentration at which binding is half-saturated. A lower Kd goes with higher affinity.
